How the values were obtained:
Adalimumab/TNF-α complex = Adalimumab/TNF-α complex (human, UniProt P01375 77-233); assay: real time, label free interaction analysis, Attana A200, immobilized Adalimumab-TNF-α complex, monovalent
Bevacizumab = biological target: T1, Bevacizumab; assay: ELISA: antigen coated at 5 µg/mL, Fab-FH at 2 µg/mL, HRP-labeled anti-His antibody, QuantaBlu
T1 construct: not shown: the constant regions
Description: (§1) 5 μg/mL of each of the antigens were coated on a microtiter plate over night. […] Detection was performed using an HRP-labeled anti-His antibody and QuantaBlu fluorogenic peroxidase substrate.
(§2) Therefore 5 μg/mL of each of the antigens were coated on a microtiter plate over night. […] Detection was performed using an HRP-labeled anti-His antibody and QuantaBlu fluorogenic peroxidase substrate.

BSA = BSA (bovine, UniProt P02769); assay: as above
BSA, sequence (P02769 25-607 limits assumed): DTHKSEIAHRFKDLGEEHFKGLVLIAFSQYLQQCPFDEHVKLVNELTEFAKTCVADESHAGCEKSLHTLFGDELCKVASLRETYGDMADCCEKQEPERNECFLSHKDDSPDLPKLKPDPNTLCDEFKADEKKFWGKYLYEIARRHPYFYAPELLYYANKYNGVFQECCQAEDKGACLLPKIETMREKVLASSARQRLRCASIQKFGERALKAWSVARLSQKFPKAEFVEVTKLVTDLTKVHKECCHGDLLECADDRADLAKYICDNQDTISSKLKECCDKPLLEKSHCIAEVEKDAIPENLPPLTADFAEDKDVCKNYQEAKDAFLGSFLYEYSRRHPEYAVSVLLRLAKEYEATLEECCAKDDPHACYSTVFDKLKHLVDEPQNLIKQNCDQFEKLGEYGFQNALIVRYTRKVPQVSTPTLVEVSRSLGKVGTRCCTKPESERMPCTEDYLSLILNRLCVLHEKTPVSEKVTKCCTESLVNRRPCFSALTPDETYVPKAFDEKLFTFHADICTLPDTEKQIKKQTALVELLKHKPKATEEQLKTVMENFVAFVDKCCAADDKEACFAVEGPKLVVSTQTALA
Description: as §1, §2

Ustekinumab [1] = biological target: T2, Ustekinumab; assay: as above
T2 construct: not shown: the constant regions
T2 sequence (VH, as listed by the source): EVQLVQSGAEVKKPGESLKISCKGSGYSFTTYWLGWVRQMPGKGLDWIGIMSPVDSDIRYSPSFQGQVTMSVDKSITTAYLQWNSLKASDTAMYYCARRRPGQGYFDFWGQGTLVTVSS
Description: as §1, §2

Rituximab [2] = biological target: T3, Rituximab; assay: as above
T3 construct: Control antigen in the screening ELISA; also called Rituximab (IgG1kappa); not shown: the constant regions
T3 sequence (VH, as listed by the source, chain 1 of 2): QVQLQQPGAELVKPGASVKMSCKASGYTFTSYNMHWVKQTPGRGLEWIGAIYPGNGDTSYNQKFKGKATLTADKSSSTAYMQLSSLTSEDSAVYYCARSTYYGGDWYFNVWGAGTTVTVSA
T3 sequence (VL, as listed by the source, chain 2 of 2): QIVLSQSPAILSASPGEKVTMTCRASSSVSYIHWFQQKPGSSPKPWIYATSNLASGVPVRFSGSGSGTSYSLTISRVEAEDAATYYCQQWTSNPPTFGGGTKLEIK
Description: as §1, §2

Adalimumab [3] = biological target: T4, Adalimumab; assay: as above
T4 construct: not shown: the constant regions
Description: as §1, §2

Ustekinumab [4] = biological target: T2, Ustekinumab; assay: ELISA: antigen coated at 5 µg/mL, HRP-conjugated AdaTNF#5-hIgG1 at 2 µg/mL in HiSpec buffer, QuantaBlu
Description: (§3) Antigens were coated at 5 μg/mL on a microtiter plate over night. […] Detection was performed using the QuantaBlu® fluorogenic peroxidase substrate. […] (FIG. 3)

Rituximab [5] = biological target: T3, Rituximab; assay: as above
Description: as §3

Adalimumab [6] = biological target: T4, Adalimumab; assay: as above
Description: as §3

T1 sequence (VH, as listed by the source): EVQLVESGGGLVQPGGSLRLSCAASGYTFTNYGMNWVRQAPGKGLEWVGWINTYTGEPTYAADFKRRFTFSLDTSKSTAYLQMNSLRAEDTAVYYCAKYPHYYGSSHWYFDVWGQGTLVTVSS
Adalimumab/TNF-α complex, sequence (P01375 77-233, one chain of several): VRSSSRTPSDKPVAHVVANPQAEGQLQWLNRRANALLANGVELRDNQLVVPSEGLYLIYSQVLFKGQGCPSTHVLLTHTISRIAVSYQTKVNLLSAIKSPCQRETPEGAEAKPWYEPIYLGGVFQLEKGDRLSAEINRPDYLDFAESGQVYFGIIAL

| Binder | Kd (Adalimumab/TNF-α complex) [nM] | binding result (Bevacizumab) | binding result (BSA) | binding result (Ustekinumab [1]) | binding result (Rituximab [2]) | binding result (Adalimumab [3]) | binding result (Ustekinumab [4]) | binding result (Rituximab [5]) | binding result (Adalimumab [6]) |
| --- | --- | --- | --- | --- | --- | --- | --- | --- | --- |
| AdaTNF#5 (Fab, V domains shown, HuCAL Fab in Fab-FH format, detected by an anti-His antibody; also called AdaTNb/F#5; anti-Adalimumab/TNF-α antibody in Fab-FH format) VH: QVQLVQSGAEVKKPGSSVKVSCKASGGTFSTNAISWVRQAPGQGLEWMGGINPHLGHADYAQKFQGRVTITADESTSTAYMELSSLRSEDTAVYYCARGWYYIGSNPSMYPNYFDPWGQGTLVTVSS VL: DIQMTQSPSSLSASVGDRVTITCRASQTISSYLNWYQQKPGKAPKLLIYTASNLQSGVPSRFSGSGSGTDFTLTISSLQPEDFATYYCQQVLHLPHTFGQGTKVEIKR | 67 | no binding (tested: 2 µg/mL) | no binding (tested: 2 µg/mL) | no binding (tested: 2 µg/mL) | no binding (tested: 2 µg/mL) | no binding (tested: 2 µg/mL) | – | – | – |
| AdaTNF#5-hIgG1 (antibody, V domains shown, antibody conjugated to HRP, site not stated, AdaTNF#5 converted into full length (bivalent) human IgG1, expressed in a human cell line, conjugated to HRP; also called anti-Adalimumab/TNF-α hIgG1 antibody AdaTNF#5 (conjugated to HRP); HRP-conjugated AdaTNF#5-hIgG1) VH: QVQLVQSGAEVKKPGSSVKVSCKASGGTFSTNAISWVRQAPGQGLEWMGGINPHLGHADYAQKFQGRVTITADESTSTAYMELSSLRSEDTAVYYCARGWYYIGSNPSMYPNYFDPWGQGTLVTVSS VL: DIQMTQSPSSLSASVGDRVTITCRASQTISSYLNWYQQKPGKAPKLLIYTASNLQSGVPSRFSGSGSGTDFTLTISSLQPEDFATYYCQQVLHLPHTFGQGTKVEIKR | – | – | – | – | – | – | no binding (tested: 2 µg/mL) | no binding (tested: 2 µg/mL) | no binding (tested: 2 µg/mL) |
| AdaTNF#1 (Fab, V domains shown, HuCAL Fab in Fab-FH format, detected by an anti-His antibody; also called anti-Adalimumab/TNF-α antibody in Fab-FH format) VH: QVQLVQSGAEVKKPGSSVKVSCKASGGTFSTYAISWVRQAPGQGLEWMGGIIPIFGTANYAQKFQGRVTITADESTSTAYMELSSLRSEDTAVYYCARDYFSSIGWVVYYGPMDYWGQGTLVTVSS VL: not shown | – | no binding (tested: 2 µg/mL) | no binding (tested: 2 µg/mL) | no binding (tested: 2 µg/mL) | no binding (tested: 2 µg/mL) | no binding (tested: 2 µg/mL) | – | – | – |

From US20150197579A1 (MorphoSys, published 2015)
